Data taken from patent US20210253725A1 (BIONTECH, published 2021).

T1: CD27 expressed on the cell surface (HT1080_CD27 cells) (human, UniProt P26842 20-260)
T1 construct: whole, on cells; also called K562_CD27
T1 sequence (looked up): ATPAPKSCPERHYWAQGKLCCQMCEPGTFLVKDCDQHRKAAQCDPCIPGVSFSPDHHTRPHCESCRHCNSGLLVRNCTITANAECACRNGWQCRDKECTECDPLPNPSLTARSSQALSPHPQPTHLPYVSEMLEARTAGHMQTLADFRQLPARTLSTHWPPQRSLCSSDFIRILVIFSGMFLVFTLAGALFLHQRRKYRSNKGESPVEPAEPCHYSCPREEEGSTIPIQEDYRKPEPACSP

T2: CD27 protein (His-tagged, Sino Biological Inc. 10039-H08B1) (human, UniProt P26842 20-192)
T2 construct: bought; coated onto ELISA plates; also called human CD27; recombinant protein; not shown: His tag
T2 sequence (looked up): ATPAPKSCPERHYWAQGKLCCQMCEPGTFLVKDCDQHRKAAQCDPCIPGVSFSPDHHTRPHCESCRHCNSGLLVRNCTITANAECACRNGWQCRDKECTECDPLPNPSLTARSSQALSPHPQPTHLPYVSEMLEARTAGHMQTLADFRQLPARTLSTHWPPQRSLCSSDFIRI


How the values were obtained:
[1] = target: T1, CD27 expressed on the cell surface …; test: cellular binding assay, HT1080_CD27 cells
[2] = target: T2, CD27 protein (His-tagged, Sino …); test: ELISA on coated His-tagged CD27
[3] = target: T1, CD27 expressed on the cell surface …; test: cell-based or functional assay
Also: test concentration or dose not given here.

| Binder | Cellular binding assay [RFU] [1] | ELISA [abs. corr.] [2] | IL-8, cross-linked by F(ab')2 fragment [abs. corr.] [3] | IL-8 [abs. corr.] [3] |
| --- | --- | --- | --- | --- |
| P018.S.10.A.F05 (antibody, V domains shown, V regions on human Ig constant parts; also called AB27_181) VH: QSVEESGGRLVTPGTPLTLTCTVSGFSLSGYHMCWVRQAPGKGLQYIGIIGSNGVTYYASWAKSRSTITRNTNENTVTLKMTSLTTEDTATYFCARSSGWGARFNLWGQGTLVTVSS VL: AQVLTQTPASVSAAVGGTVTINCQASQSVYNDNELSWYQQKPGQPPKLLIYKASTLTSGVPLRFSGSGSGTQFTLTISDVQSDDAATYYCLGGGSTPSDSTFGGGTEVVVK | 335 RFU | 3.49 abs. corr. | 1.34 abs. corr. | 0.267 abs. corr. |
| P018.S.10.A.G03 (antibody, V domains shown, V regions on human Ig constant parts; also called AB27_182) VH: QSVEESGGRLVTPGTPLTLTCTVSGFTISSYHMCWVRQAPGKGLQYIGIIGSNGNTYYASWAKSRSTITRNTNENTVTLKMTSLTTEDTATYFCARSSGWGARFNLWGQGTLVTVSS VL: AQVLTQTPSSVSAAVGGTVTINCQASQSVYNDNELSWYQQKPGQPPKLLIYKASTLTSGVPLRFSGSGSGTQFTLTISDVQSDDAATYYCLGGGSTPSDSTFGGGTEVVVK | 386 RFU | 3.31 abs. corr. | 1.3 abs. corr. | -0.18 abs. corr. |
| P018.S.10.A.A06 (antibody, V domains shown, V regions on human Ig constant parts; also called AB27_165) VH: QSVEESGGRLVTPGTPLTLTCTVSGFSLSGYHMCWVRQAPGKGLQYIGIIGSNGNTYYASWAKSRSTITRNTNENTVTLKMTSLTTEDTATYFCARSSGWGARFNLWGQGTLVTVSS VL: AQVLTQTPSSVSAAVGGTVTINCQASQSIYNDNELSWYQQKPGQPPKLLIYKASTLASGVPLRFSGSGSGTQFTLTISDVQSDVAATYYCLGGGMTPSDTTFGGGTEVVVK | 414 RFU | 3.18 abs. corr. | 1.12 abs. corr. | -0.13 abs. corr. |
| P018.S.09.A.E06 (antibody, V domains shown, V regions on human Ig constant parts; also called AB27_156) VH: QSVEESGGRLVTPGTPLTLTCTVSGFSLSSYGMIWVRQAPGKGLEWIAWSSSNDNTYYASWAKGRFTISKTSSTTVDLKMTSLTTEDTATYFCARNGVYSTGNYFDLWGQGTLVTVSS VL: AQVLTQTPSPVSAAVGGTVTINCQASQSVYNNNNLAWYQQKPGQPPKFLIYAASRLPSGVPPRFSGSGSGTQFTLTISDVQSDDAATYYCQGEFDCDSADCFAFGGGTEVVVK | 307 RFU | 3.54 abs. corr. | 1.73 abs. corr. | 1.23 abs. corr. |
| P018.S.03.A.F04 (antibody, V domains shown, V regions on human Ig constant parts; also called AB27_55) VH: QSVEESGGRLVTPGTPLTLTCTVSGFSLSSYAMGWVRQAPGKGLQWIGILYRNDAASYANWAKGRFTISKTSTTVDLTMPSLTTEDTATYFCVRGYVNDGYYNLWGQGTLVTVSS VL: AYDMTQTPASVEVAVGGTVTIKCQASESIGYRLAWYQQKPGQPPKLLIFDASDLASGVPSRFKGSGSGKHFTLTISGVQSADAATYYCQQDYSYSITDNCFGGGTEVVVS | 299 RFU | 3.31 abs. corr. | 1.59 abs. corr. | 0.253 abs. corr. |
| P018.S.01.A.E03 (antibody, V domains shown, V regions on human Ig constant parts; also called AB27_15) VH: QSVEESGGRLVTPGTPLTLTCTVSGFSLSSYAMGWVRQAPGKGLQWIGILYRNDAASYANWAKGRFTISKTSTTVDLTMPSLTTEDTATYFCVRGYVNDGYYNLWGQGTLVTVSS VL: AYDMTQTPASVEVAVGGTVTIKCQASESIGYRLAWYQQKSGQPPKLLIFDASDLASGVPSRFKGSGSGKHFTLTISGVQSADAATYYCQQDYSYSIIDNSFGGGTEVVVK | 335 RFU | 3.3 abs. corr. | 1.22 abs. corr. | 0.436 abs. corr. |
| P018.S.05.A.A04 (antibody, V domains shown, V regions on human Ig constant parts; also called AB27_81) VH: QEQLVESGGDLVKPGASLTLTCTASGIDFSSSYYMSWVRQAPGKGLEWIACIDTVDDYTYYASWAKGRFTISKTSSTTVSLQMTSLTAADTATYFCARERIDNNTDCFDLWGPGTLVTISS VL: AQVLTQTPSPVSAAVGGTVTISCQSSQSVVSKNRLAWYQQKPGQPPKLLIWLASKLASGVPSRFRGSGSGTQFTLTISGVQSDDAATYYCQGYYSGAIYAFGGGTDVVVK | 369 RFU | 3.3 abs. corr. | 1.37 abs. corr. | 0.226 abs. corr. |
| P018.S.10.A.C06 (antibody, V domains shown, V regions on human Ig constant parts; also called AB27_174) VH: QSLEESGGRLVTPGTPLTLTCTVSGIDLNNNAMTWVRQAPGEGLEWIGIISTADTTTYASWTKGRFTISKTSTTVDLKITSPTTEDTATYFCARAAYFSYGYFNLWGQGTLVTVSS VL: DIVMTQTPASVEAAVGGTVTIKCQASQNIGNALAWYQQKPGQPPKLLIYGASTLASGVPSRFKGSGSGTEFTLTISDLESADATTYFCQSYVYSDGNVFGGGTEVVVK | 395 RFU | 3.39 abs. corr. | 1.18 abs. corr. | 0.28 abs. corr. |
| P018.S.05.A.B02 (antibody, V domains shown, V regions on human Ig constant parts; also called AB27_83) VH: QSLEESGGRLVTPGTPLTLTCKVSGFSLSSYDMIWVRQAPGKGLEWIGIVSTGGSAGYASWAKGRFTITKTSTTVDLKITSPTTEDTATYFCARIISGGRDLWGPGTLVTVSS VL: DIVMTQTPASVEAAVGGTVTIKCQASESISSRLAWYQQKPGQPPKLLIYSASTLAFGVSSRFKGSGSGTQFTLTISDLESADAATYYCQSYYYSSTASYASNNAFGGGTEVVVK | 259 RFU | 3.32 abs. corr. | 1.95 abs. corr. | 0.633 abs. corr. |

Continued, values first:

| Cellular binding assay [RFU] [1] | ELISA [abs. corr.] [2] | IL-8, cross-linked by F(ab')2 fragment [abs. corr.] [3] | IL-8 [abs. corr.] [3] | Binder |
| --- | --- | --- | --- | --- |
| 329 RFU | 3.31 abs. corr. | 1.05 abs. corr. | -0.011 abs. corr. | P018.S.10.A.F01 (antibody, V domains shown, V regions on human Ig constant parts; also called AB27_179) VH: QSLEESGGGLVQPEGSLTLTCTASGFSFSSSDYMCWVRQAPGKGLEWIACMYTGSVEHTYYANWAEGRFTISKTSSTTVTLQMTSLTAADTATYFCARSPTGYPDYGYGGFSLWGPGTLVTVSS VL: ALVMTQTPSSVSAAVGGTVTINCQASQNIYSNLAWYQQKSGQRPKLLIHGASNLESGVPSRFKGSGSGTEFTLTISDLESADAATYYCQSAYYSGGPDMAFGGGTEVVVK |
| 387 RFU | 3.3 abs. corr. | 1.7 abs. corr. | 0.06 abs. corr. | P018.S.01.A.B03 (antibody, V domains shown, V regions on human Ig constant parts; also called AB27_4) VH: QSLEESGGRLVTPGTPLTLTCTVSGFSLSSNAMSWVRQAPGEGLEWIGTIYTHGSSYYATWAKGRFTISKTSSTTVDLKMTSLTTEDTATYFCAGWAGGLSLWGPGTLVTVSS VL: DVVMTQTPASVSEPVGGTVTIKCQASEDIDNALAWYQQKPGQAPKILIYSASTLPSGVPSRFKGSGSGTQFTLTISDLESADAATYYCQSAYGGTYGDGFGGGTEVVVK |
| 227 RFU | 3.3 abs. corr. | 2.54 abs. corr. | 0.257 abs. corr. | P018.S.10.A.E01 (antibody, V domains shown, V regions on human Ig constant parts; also called AB27_175) VH: QEQLVESGGGLVQPEGSLTLTCTATGIDFSTNYRSCWVRQAPGKGLEWIACIDTDDSDSTYYASWAKGRFTISKTSSTTVTLQMTSLTAADTATYFCTRAYTTSDYAWSFYLWGPGTLVTVSS VL: DLVMTQTPASVEAAVGGTVTIKCQTSQSISKFLNWYQQTPGQPPKLLIYRASTLESGVPSRFEGSGSGTEFTLTISDLESADAATYYCQCTYGGTSGSVWAFGGGTEVVVK |
| 315 RFU | 3.32 abs. corr. | 2.48 abs. corr. | 0.598 abs. corr. | P018.S.08.A.G02 (antibody, V domains shown, V regions on human Ig constant parts; also called AB27_141) VH: QSVEESGGRLVTPGTPLTLTCTVSGFSLSTYAMSWVRQAPGKGLEWIGMNTRSGIIYYASWAKGRFTISKTSTTVHLKITSPTTEDTATYFCARDLYADVSGYYLGLWGPGTLVTVSS VL: AQVLTQTPSSVSAAVGGTVTINCQASQSLYNNKNLAWYQQKPGQPPKLLIYYASTLASGVSSRFKGSGSGTQFTLTISDLESDDAATYYCQGEFICSSADCVVFGGGTAVVVK |
| 334 RFU | 3.3 abs. corr. | 1.53 abs. corr. | 0.212 abs. corr. | P018.S.05.A.A02 (antibody, V domains shown, V regions on human Ig constant parts; also called AB27_80) VH: QSLEESGGRLVTPGTPLTLICTASGIDLSSYGMTWVRQAPGKGLEWIGIISTIGDTYYASWVKGRFTISKTSTTVDLKITSPTTEDTATYFCARYTNSGYAMMYYFNLWGQGTLVTVSS VL: DIVMTQTPASVEAAVGGTVTIKCQASQNIVNALAWYQQKLGQPPKLLIYVASYLASGVPSRFKGSGSGTEFTLTISDLESVDAATYYCQSYYYSSGTSYGQNAFGGGTEVVVK |
| 357 RFU | 3.3 abs. corr. | 1.22 abs. corr. | 0.582 abs. corr. | P018.S.06.A.E02 (antibody, V domains shown, V regions on human Ig constant parts; also called AB27_105) VH: QSLEESGGRLVTPGTPLTLTCTVSGIDLNNNAMTWVRQAPGEGLEWIGIISTADTTSYASWTKGRFTISKTSTTVDLKITSPTTEDTATYFCARAAYFSYGYFNLWGQGTLVTVSS VL: DIVMTQTPASVEAAVGGTVTIKCQASQNIGNALAWYQQKSGQPPKLLIYGASTLASGVPSRFKGSGSGTEFTLTISDLESADATTYFCQSYVYSDGNVFGGGTEVVVK |
| 317 RFU | 3.3 abs. corr. | 2.54 abs. corr. | 0.3 abs. corr. | P018.S.01.A.H02 (antibody, V domains shown, V regions on human Ig constant parts; also called AB27_25) VH: QSVEESGGRLVTPGTPLTLTCTASGFSLSSYHMQWVRQAPGKGLEWIGIIYAGSGNTWYASWAKGRFTISKTSTTVDLKITSPTTEDTAAYFCARQPGGDASDTQLDLWGQGTLVTVSS VL: AAVLTQTASPVSAAVGGTVTINCQSSQSVFDHNQLSWFQHKPGQSPKLLIYRASTLASGVPSRFKGSGSGTQFTLTISDVQSDDAATYYCLGGYSSSSDTVFGGGTEVVVK |
